Laboratory results: US20050148516A1

Target: mature type GnT-V
Assay: cell-based or functional assay

γ-secretase (enzyme)
GnT-V activity in culture solution, PS-1 ΔE9 cells against control cells: 4 fold
ratio of the GnT-V activity in culture solution (extracellular) to that in the cell, PS-1 ΔE9 cells: 3.5
ratio of the GnT-V activity in culture solution (extracellular) to that in the cell, PS-1 ΔE9 cells against control cells: 3 fold
ratio of the GnT-V activity in culture solution (extracellular) to that in the cell, control cells without high expression of variant presenilin-1: 1.2
